Assay results published in paper doi:10.1101/2023.04.22.537891.

Biological target: T1, TaNAC016-3A (Triticum aestivum, UniProt A0A3B6EBU1 1-353)
T1 sequence: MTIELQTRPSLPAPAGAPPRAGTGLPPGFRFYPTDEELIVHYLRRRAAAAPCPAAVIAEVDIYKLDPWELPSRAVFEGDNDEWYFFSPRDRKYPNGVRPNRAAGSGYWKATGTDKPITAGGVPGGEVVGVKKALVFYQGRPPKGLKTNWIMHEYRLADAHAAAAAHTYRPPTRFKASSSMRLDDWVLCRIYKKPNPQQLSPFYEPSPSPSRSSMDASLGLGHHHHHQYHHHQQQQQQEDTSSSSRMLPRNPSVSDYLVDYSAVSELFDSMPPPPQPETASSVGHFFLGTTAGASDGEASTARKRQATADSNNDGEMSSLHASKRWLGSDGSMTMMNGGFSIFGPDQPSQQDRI
Assay: EMSA

B1: proTaPAO-4B EMSA probe (PAOsite2) (dsDNA)
DNA 1: AAGGATGGCCGGCACTTACGCAACCTGTCCTTAGACCCCCACAGAAC
DNA 2: GTTCTGTGGGGGTCTAAGGACAGGTTGCGTAAGTGCCGGCCATCCTT
**Q.** Does B1 bind?
**A.** binds
